The data set is described as follows: amyloid nucleation score (Sup35N fusion, yeast selection) (log enrichment); library NNK2; higher = more nucleation; inactive = no reads after selection. In short, it runs like this:
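DiMSum was used to calculate nucleation scores as log enrichment of output over input reads, centred on the mode score of non-aggregating sequences. Sequences with fewer than 100 input reads were not scored. Input and output came from Illumina sequencing of plasmid inserts in psi-negative yeast expressing peptides of 20 random codons fused to Sup35N, induced 24 hours with 100 μM copper sulfate and then grown 7 days at 30°C on medium lacking adenine and uracil.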

± gives the uncertainty stated by the source.

For the substance GGYDGVSQMCHFEITWNWMT, the amyloid nucleation score came to 1.37 ± 0.29.

ERSNFWPRVQTPCESVA yielded an amyloid nucleation score of 0.016 ± 1.1. The substance IAGLTISSAISGSWDVVKPS had an amyloid nucleation score of 4.38 ± 0.052. For the substance SRNISQKLHTYMTYGSKVGY, the amyloid nucleation score was -0.229 ± 0.32. For DSFASTQYCAVSSSVQLAWQ, the amyloid nucleation score came out at 1.45 ± 0.27. On to GWVVRRINAVVFVASGSI, for which the amyloid nucleation score is 5.601 ± 0.048. For the substance RMTSHCMNSLIWQKNHGMRV, the amyloid nucleation score was -0.348 ± 0.65. Take FFGALNWGLKQE: the amyloid nucleation score was 0.646 ± 0.43.

Take TGLVFYSSRFYVTVSMVLKE: the amyloid nucleation score result was “inactive”. The substance FNSRL yielded an amyloid nucleation score of -0.208 ± 1. With GKPNGGYSTAK the figure was 0.777 ± 0.4; with FLLPIWGSNHNTLNFR, -0.547 ± 1.1. Substance LFKRGIVGDRGTKG returned an amyloid nucleation score of -0.905 ± 0.48. The value for APHSLVVGCTVVLF was 7.589 ± 0.037; that for SKDLSISQWSLGWLCHVWHT was -0.153 ± 0.79; that for IFSEGSTSSGSFGTKL was -1.6 ± 0.61.

Substance FCSVCDRL had an amyloid nucleation score of 0.168 ± 0.23. On to RRVGLSGRTKMSG, for which the amyloid nucleation score came to 0.048 ± 0.55. LSVCLAKPTCDVSF had an amyloid nucleation score of 0.201 ± 0.33. The value for QEQDKSRELKCGGKLYVYEG was 1.04 ± 0.68; that for YPDDLVMPLDDQRCKARLGH was 0.665 ± 0.57; that for NSMPATIYFMRSPDIGFSV was 2.81 ± 0.16. With LKTACVDALLH the figure was 0.258 ± 0.26.

For WQHGVRSGQQECPRLEGNRV, the amyloid nucleation score amounted to 0.379 ± 0.23.

VSHFPGSPLTNKRSMLPAQM yielded an amyloid nucleation score of 2.01 ± 0.14. On to YFLSSFVSNWWAQYVYW, for which the amyloid nucleation score result was “inactive”. For the substance IVTAVITM, the amyloid nucleation score entry is “inactive”. The value for ESGVWCKAPFYMSVTLSIHS was -0.487 ± 0.56; that for NDRRRRGCRWMVAALVSSVL was 0.966 ± 0.53. As to MCCFRNSNVGAYRSSSIVNG, the amyloid nucleation score was -0.403 ± 1.

IEYRNMLMLSCFNKYMDCLN: the amyloid nucleation score is 4.45 ± 0.055. In turn, NRTGEYLYRRWVQSGSGGKG returned an amyloid nucleation score of 0.553 ± 0.65. As for KATRTFY, the amyloid nucleation score is 0.495 ± 0.34. IAACLFYNRSVNIFTGVDGL returned an amyloid nucleation score of 4.09 ± 0.14. Take NCGLCGILHHL: the amyloid nucleation score came out at 8.14 ± 0.072. In turn, VFSSNEYFPLYSVFIVSEIL came in with an amyloid nucleation score of 2.47 ± 0.074. With LNSANSFWCVRRYCGTAQMQ the figure was -1.29 ± 1.1; with CDFSSVTD, -0.357 ± 0.4. SMIDGWGRVFHYAVVQISMN: the amyloid nucleation score worked out at 6.158 ± 0.032. The substance ITDGLYLTWGFDP gave an amyloid nucleation score of 0.931 ± 0.74.

Take YSSVSR: the amyloid nucleation score is -1.05 ± 0.55. QRDCSYEYLTTKLTAELRGS had an amyloid nucleation score of 0.216 ± 0.55. On to FARSFPRFRTESFDCKECRG, for which the amyloid nucleation score result is “inactive”. Substance VVWCGTYVYHDV gave an amyloid nucleation score of 8.885 ± 0.075. LSRAN: the amyloid nucleation score entry was “inactive”.

In the case of RDGLVQMDVVLINVRVEVVC, the amyloid nucleation score is -0.13 ± 0.76. With GWFFDFFITCPVSHSTFSKL the figure was 2.19 ± 0.14. For QSYVLMC, the amyloid nucleation score is -0.233 ± 0.48. QMFVRCSQ gave an amyloid nucleation score of 0.705 ± 0.66. With MINYCREIQFRM the figure was 3.63 ± 0.12; with VKLVCSDFKMACTSSSMSVD, 0.861 ± 0.24; with IATHHTDESAG, -0.083 ± 0.79.

For DFLSGTMVDETSDKGISLLV, the amyloid nucleation score came out at 0.605 ± 0.47. In turn, SGAQA registered an amyloid nucleation score of -0.966 ± 0.78. Turning to RMNGRYNLCTATGLVSASWW, the amyloid nucleation score came to 0.09 ± 0.4.

DSWSAVYTNISELAIGGCHG returned an amyloid nucleation score of -0.055 ± 1.1. Take FLTLPVSPSTQFISDRGSAL: the amyloid nucleation score amounted to 2.64 ± 0.13. The substance YVKLCSRRDGT returned an amyloid nucleation score of -0.352 ± 0.18. AGAHVVKAIHFSLYGNEGLT displayed an amyloid nucleation score of 0.6 ± 0.74. Turning to NGGSGNQVMLEVTNLVFK, the amyloid nucleation score was 5.295 ± 0.044.

Take LVCYV: the amyloid nucleation score is 0.611 ± 0.46. The value for VAFIYCIV was 4.99 ± 0.068; that for LTRYLLWLLVESGFLGRSGV was -0.21 ± 0.79; that for KHSIMRRKRGFPATKR was 0.722 ± 0.43.

HWTSFKSGNALGMCETI had an amyloid nucleation score of 0.076 ± 0.41. The value for FLNHYWLYFQP was 5.353 ± 0.044; that for SFTGL was -0.684 ± 0.44; that for RSVVVGGHNLRISTQAILIP was 0.34 ± 0.64. SRICLLTYMGSIINRDVSVY showed an amyloid nucleation score of -1.6 ± 0.55. With ILRFEAIYFEIMPHVYKVVK, the amyloid nucleation score was -0.409 ± 0.38. Consider VWVSSIDMGLFVANLCETAS, for which the amyloid nucleation score was -0.074 ± 1.1.

Turning to LYSVGFRLTS, the amyloid nucleation score result was “inactive”.

On to TVGHDQASYMGFGSFYTSVF, for which the amyloid nucleation score is -0.538 ± 0.76. On to LLEVGSKKCGHPLSTYSKAN, for which the amyloid nucleation score was determined as 0.463 ± 0.48. As to YSYVVNLLTYTRSECKMLV, the amyloid nucleation score turned out to be 5.738 ± 0.035.

Consider WSRIGG, for which the amyloid nucleation score is -0.498 ± 0.63. TYVLAIGLFWRYPF yielded an amyloid nucleation score of 3.22 ± 0.083. On to LKSSWPFDVKKAYKCYVKFA, for which the amyloid nucleation score was determined as 0.006 ± 0.65.

In turn, FVECILASLWTRFEKIRMAC registered an amyloid nucleation score of -0.108 ± 1.1. The substance GFSIVNQDWYS displayed an amyloid nucleation score of 0.675 ± 0.35. With KTNHEELKA the entry was “inactive”.

Turning to LSVSHMCEADLQYRTLFLSK, the amyloid nucleation score was -0.606 ± 0.37.

Substance KSLYCVNFLCRPECANPSSS gave an amyloid nucleation score of 6.592 ± 0.029.

The substance TSTIYGLTPRFGNMAHSAVV showed an amyloid nucleation score of 0.227 ± 0.65. Substance EWTLWSSGLRAES had an amyloid nucleation score of 0.217 ± 0.3. Substance TLNYSVEQPYAVIILGCKLA gave an amyloid nucleation score of 3.56 ± 0.083. With FIKVFCSLRVDNQVRYRKRL the figure was 2.75 ± 0.1. Substance MFCKLRFSVFLAWVDVK gave an amyloid nucleation score of 0.356 ± 0.6. As to NCSSMFCIICKKCCVDAFIL, the amyloid nucleation score was 3.73 ± 0.048.

For LTHQRRRLMMCI, the amyloid nucleation score stood at 0.283 ± 0.32. In turn, AIVGEMMALFYDNLSRGGVH had an amyloid nucleation score of -0.505 ± 0.47. With DMSFQDIIMP the figure was -0.931 ± 0.54. With SRRDGCGAPSKTSNWA the figure was 0.64 ± 0.8; with LFTVYFKK, -0.6 ± 0.63. Substance HTRLHKGIQRVEIGSMNGK showed an amyloid nucleation score of -0.637 ± 1.1. The value for RYISPSQSAQVSGHLRNVQL was 0.689 ± 0.62. The substance VCACLNMTCVFFILTGNGVK displayed an amyloid nucleation score of 7.59 ± 0.039.

On to RGERVSPNNGTS, for which the amyloid nucleation score was determined as 0.87 ± 0.14.

HSWVFLWRGNCSFWRDSFKV: the amyloid nucleation score result is “inactive”.

In turn, TGRWCVVGHRKSS showed an amyloid nucleation score of -0.056 ± 0.34. Regarding SSNLKYGKSIFGNSFLQSVF, the amyloid nucleation score was -1.27 ± 0.62. In turn, PIGINSVKVSNYINLRYCAC came in with an amyloid nucleation score of 5.736 ± 0.043. Turning to TLFRKL, the amyloid nucleation score was -0.543 ± 0.44. CINVYKY came in with an amyloid nucleation score of 6.768 ± 0.026. For FQCSYVWVKLWHILN, the amyloid nucleation score is -0.887 ± 1.1. ILGVRYVSCSGSLGNWAQRG registered an amyloid nucleation score of 4.87 ± 0.098. Substance VVNSQQFVGLCSRRSA yielded an amyloid nucleation score of 0.576 ± 0.42. For the substance HKAFVAAVERWAEYLDADVS, the amyloid nucleation score was -0.585 ± 0.63. As to LSNAFRLNYTLLYAFISYFH, the amyloid nucleation score is -1.22 ± 0.76. With LVILEINVPKNIVSQRNYVP the figure was 8.045 ± 0.03. SGNIAMFVPSVRWSVRDYCC: the amyloid nucleation score was 1.06 ± 0.14. TIHSSPTVGLGNIWFVTNSH came in with an amyloid nucleation score of 6.87 ± 0.052. In the case of NCFDKMHKIWLFLLSLSIFC, the amyloid nucleation score result was “inactive”. EALSKLFFYSWERSFHNGEG: the amyloid nucleation score was found to be 2.11 ± 0.11. Substance VFPQLCDVSLE registered an amyloid nucleation score of -0.476 ± 1.1. Consider DFIMFLAGPNSVNYNVVLYF, for which the amyloid nucleation score was determined as 7.437 ± 0.055. As to IIIIATEHK, the amyloid nucleation score is 3.48 ± 0.16. With NRVLVLAVGHEKFIAKMRLT the figure was 1.51 ± 0.46; with GRRFLYKPAKTWYVVWHRGL, 0.229 ± 0.49; with MYRVLAICNRTVRKG, -0.562 ± 0.61.

SDTFS: the amyloid nucleation score is 0.68 ± 0.56.

Turning to RLYPLIVQFFMVCKT, the amyloid nucleation score is 1.48 ± 0.23. Consider LIIQRLEGAF, for which the amyloid nucleation score was -0.245 ± 0.32. RCERWCPWNFHNQAL: the amyloid nucleation score came to 0.449 ± 0.51. For MESRILRNIYFCLTCKPSQW, the amyloid nucleation score stood at 2.24 ± 0.17. With DCQVSTLAYWSRVKMFQYQK the figure was 3.71 ± 0.077; with GGYICFQMFFYCVFARNY, 1.27 ± 0.082. In turn, CSRGP displayed an amyloid nucleation score of 0.534 ± 0.64. In turn, ESRHSSLFHHPE had an amyloid nucleation score of 0.119 ± 0.65. In turn, ACVCHREGCVAKGIIVM registered an amyloid nucleation score of 0.237 ± 1. TYSFVSLTYDSVTVFALTRC displayed an amyloid nucleation score of -0.326 ± 0.49. Substance HIFGNRYWYSFCCFLLLPRR had an amyloid nucleation score of 7.691 ± 0.072. Substance YHCGFGAS yielded an amyloid nucleation score of 0.837 ± 0.44. Take SVNFSANRRNIDGFERAGPA: the amyloid nucleation score was -0.476 ± 1.1.

The substance LCWEVRTLEFIGFTQSYGKG gave an amyloid nucleation score of -0.005 ± 0.33. FICSAYFECRRDSYEFFVGC: the amyloid nucleation score entry was “inactive”. The value for ESIVDWSYCFLTTFMSPRWA was 0.193 ± 0.65; that for DWTDCYWMLRDTGGFSIS was -1.35 ± 0.78; that for ALPPPVKELPWISRFRQWGR was 1.22 ± 0.47. The value for FKFYGFFD was “inactive”; that for GSYVDEVSIYPDEACSYRLA was -0.187 ± 0.76.

These data come from the supplement of paper PMC12042874.
